# According to publication PMC1995591 (Molecular Microbiology, 2007):
# B1: Rv3520c/Rv3521 probe (dsDNA)
# DNA 1: TGTCGAGTAGAACAGGTTCTAACAACGGT
# DNA 2: ACCGTTGTTAGAACCTGTTCTACTCGACA
# B2: Rv3573c/Rv3574 (kstR) 29 bp probe (dsDNA)
# DNA 1: TGCCCACTAGAACGTGTTCTAATAGTGCT
# DNA 2: AGCACTATTAGAACACGTTCTAGTGGGCA
# B3: Rv3570c/Rv3571 probe, motif 2 (dsDNA)
# DNA 1: TCATAACTAGAACATGTTACAGAAAACCC
# DNA 2: GGGTTTTCTGTAACATGTTCTAGTTATGA
# B4: Rv0223c probe (dsDNA)
# DNA 1: GCGAAACGAGAACGTGTTCCATTATTAGG
# DNA 2: CCTAATAATGGAACACGTTCTCGTTTCGC
# B5: Rv1894c/Rv1895 probe (dsDNA)
# DNA 1: ATAGAACTGAAACGTGTTCTAGTTTAGTA
# DNA 2: TACTAAACTAGAACACGTTTCAGTTCTAT
# B6: Rv3503c/Rv3504 probe (dsDNA)
# DNA 1: CAGAGACTAGAACGTGTTACAACCGGGAA
# DNA 2: TTCCCGGTTGTAACACGTTCTAGTCTCTG
# B7: Rv3531c/Rv3532 probe (dsDNA)
# DNA 1: TCGACACTAGAACGTGTTCCTGTTTTGCG
# DNA 2: CGCAAAACAGGAACACGTTCTAGTGTCGA
# B8: Rv0551c/Rv0552 probe (dsDNA)
# DNA 1: TCCAAATTGCAACACGTTCTAGTCTTGCC
# DNA 2: GGCAAGACTAGAACGTGTTGCAATTTGGA
# B9: Rv3515c/Rv3516 probe (Table 2 prints Rv3515c/Rv3532) (dsDNA)
# DNA 1: ACCAAACTAGAACGTGTTACATTTCTTGA
# DNA 2: TCAAGAAATGTAACACGTTCTAGTTTGGT
# B10: Rv3570c/Rv3571 probe, motif 1 (dsDNA)
# DNA 1: GAAAGACTAGAACACGTTCCGATTTGTGT
# DNA 2: ACACAAATCGGAACGTGTTCTAGTCTTTC
# B11: unlabelled kstR 29 bp probe (dsDNA)
# DNA 1: TGCCCACTAGAACGTGTTCTAATAGTGCT
# DNA 2: AGCACTATTAGAACACGTTCTAGTGGGCA
# B12: Rv0953c/Rv0954 probe (dsDNA)
# DNA 1: GCGCAGGTGGAACACGTTCTAATTCGGTG
# DNA 2: CACCGAATTAGAACGTGTTCCACCTGCGC
# B13: Rv3545c/Rv3546 probe (dsDNA)
# DNA 1: ATAGTAATGAAACGTGTTCTAGCCTGGCC
# DNA 2: GGCCAGGCTAGAACACGTTTCATTACTAT
# B14: His6-tagged KstRMtb (Mycobacterium tuberculosis TetR-type regulator Rv3574) (natural protein)
# chain: MSSANTNTSSAPDAPPRAVMKVAVLAESELGSEAQRERRKRILDATMAIASKGGYEAVQMRAVADRADVAVGTLYRYFPSKVHLLVSALGREFSRIDAKTDRSAVAGATPFQRLNFMVGKLNRAMQRNPLLTEAMTRAYVFADASAASEVDQVEKLIDSMFARAMANGEPTEDQYHIARVISDVWLSNLLAWLTRRASATDVSKRLDLAVRLLIGDQDSA
# B15: Rv0940c probe (dsDNA)
# DNA 1: GTCAAATTAGAACACGTTCTAATCTCGTT
# DNA 2: AACGAGATTAGAACGTGTTCTAATTTGAC
# Tests used:
# His6-KstRMtb (KstR) [1] = biological target: T1, His6-KstRMtb (KstR) (Mycobacterium tuberculosis H37Rv, UniProt P96856 22-220); assay: EMSA
# T1 sequence: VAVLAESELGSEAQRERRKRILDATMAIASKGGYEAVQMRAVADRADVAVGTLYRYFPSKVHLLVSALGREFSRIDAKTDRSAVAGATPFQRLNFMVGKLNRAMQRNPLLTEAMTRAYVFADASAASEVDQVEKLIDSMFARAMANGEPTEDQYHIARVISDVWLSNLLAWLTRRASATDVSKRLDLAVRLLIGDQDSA
# His6-KstRMtb (KstR) [2] = biological target: T1, His6-KstRMtb (KstR); assay: competition
# SEC = biological target: the molecule itself; assay: SEC
Binder,binding result (His6-KstRMtb (KstR) [1]),further results
B1,binds,
B2,binds,
B3,binds,
B4,no binding,
B5,binds,
B6,binds,
B7,binds,
B8,binds,
B9,binds,
B10,binds,
B11,,binding result (His6-KstRMtb (KstR) [2]): binds
B12,binds,
B13,binds,
B14,,stoichiometry N (SEC): 2
B15,binds,
